# Measurements published in patent US20240025971A1.
# Target: SARS-CoV-2 Wuhan D614G full-length Spike protein (SARS-CoV-2) (UniProt P0DTC2)
# Assay: cell-based or functional assay
substance,measurement,value
Anti-Nucleocapsid (Neg Control) (antibody),Pseudovirus Neutralization,> 50 µg/mL
